According to PMC7865352, “The Relevance of the SH2 Domain for c-Src Functionality in Triple-Negative Breast Cancer Cells”:

Target: GST-SH2 (c-Src SH2 domain) (human, UniProt P12931 151-248)
Assay: ELONA; ELONA with plated GST proteins and digoxigenin-labelled aptamers (buffer not given in material); selection in PBS + 1 mM Mg, 37 C
Conditions: protein: recombinant, label: digoxigenin

| Binder | binding result | binding result (G-quadruplex examined in silico) |
| --- | --- | --- |
| ApSH2.14F (ssDNA) DNA: GCGGATGAAGACTGGTGTAGACAATGGATACTCCCGCCACCTCCTCCCCCGCCCCCCCGCCCTAAATACGAGCAAC | binds | – |
| ApSH2.17F (ssDNA) DNA: GCGGATGAAGACTGGTGTGCGGTGGTGGGTTGGGTGGGTGGGTTTGCGGGTTGCGTTGGCCCTAAATACGAGCAAC | – | binds |
